In the assay the target is T1, Flag3-SNAP33-6His (Arabidopsis thaliana, UniProt Q9S7P9 1-300).
T1 construct: Qbc-SNARE SNAP33, Arabidopsis thaliana, At5G61210; not shown: Flag3, N-terminal, kept; 6His, C-terminal, kept
T1 sequence (looked up): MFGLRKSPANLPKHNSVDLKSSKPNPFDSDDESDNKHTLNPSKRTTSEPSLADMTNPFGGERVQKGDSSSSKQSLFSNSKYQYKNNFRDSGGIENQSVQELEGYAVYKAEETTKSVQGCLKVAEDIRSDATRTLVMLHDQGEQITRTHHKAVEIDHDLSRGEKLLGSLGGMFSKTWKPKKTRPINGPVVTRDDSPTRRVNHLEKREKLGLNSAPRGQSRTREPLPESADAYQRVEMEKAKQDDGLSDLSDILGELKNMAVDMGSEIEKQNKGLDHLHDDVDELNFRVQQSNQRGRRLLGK
Briefly: pull-down; KC1^67–91-Flag3-StrepII or KAT1^1–63-Flag6-StrepII immobilised on Strep-Tactin resin; one prey at a time in 3-fold excess; overnight at 4°C; SDS-PAGE, Coomassie. Particulars: both partners purified.

B1: KC1^67–91-Flag3-StrepII (domain or fragment, Arabidopsis thaliana, UniProt P92960 67-91, looked up)
chain: IEDDNPSSKPFIVLHFDRRYRLWEL
notes: KC1 K+ channel subunit, Arabidopsis thaliana, At4g32650, N-terminal cytosolic domain residues 67-91; also called KC1^67–91 peptide; KC1^67–91-3flag-StrepII; not shown: Flag3, C-terminal, kept; StrepII, C-terminal, kept
In the case of B1, the binding result was “binds”.

B2: KAT1^1–63-Flag6-StrepII (domain or fragment, Arabidopsis thaliana, UniProt Q39128 1-63, looked up)
chain: MSISWTRNFFERFCVEEYNIDTIKQSSFLSADLLPSLGARINQSTKLRKHIISPFNPRYRAWE
notes: KAT1 K+ channel, Arabidopsis thaliana, At5g46240, N-terminal cytosolic domain residues 1-63; also called KAT1^1–63 peptide; KAT1^1–63-6flag-StrepII; not shown: Flag6, C-terminal, kept; StrepII, C-terminal, kept
For the molecule B2, the binding result is recorded as “binds”.
